Our source for the binding result and Kd values is paper PMC3039359.

The target of one series is T1, Rrp47 ΔC (Saccharomyces cerevisiae, UniProt P38801 1-120, del121-184).
T1 sequence: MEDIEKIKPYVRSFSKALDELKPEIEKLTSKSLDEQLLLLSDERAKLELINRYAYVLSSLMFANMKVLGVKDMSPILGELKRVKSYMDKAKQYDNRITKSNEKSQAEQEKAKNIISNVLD
In words: filter binding.

For the next series, the target named is T2, Rrp47 (Saccharomyces cerevisiae, UniProt P38801 1-184).
T2 sequence: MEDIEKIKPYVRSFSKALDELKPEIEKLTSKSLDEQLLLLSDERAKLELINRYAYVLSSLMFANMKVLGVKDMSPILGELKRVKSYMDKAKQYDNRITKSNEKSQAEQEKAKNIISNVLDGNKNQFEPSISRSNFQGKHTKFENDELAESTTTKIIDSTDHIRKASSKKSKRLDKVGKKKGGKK
In words: filter binding.

B1: SL-AU RNA (structured_RNA)
RNA: GGGUUUCCUUCUCAAACAUUCUGUUUGGUAGUGAGUAAUUAAAAAUGAAUU
In the case of B1, the binding result with Rrp47 ΔC is reported as “no binding”. The same molecule registered a Kd with Rrp47 of about 1000 nM.
